According to patent US20260041733A1, “COMBINATION FOR USE IN OPHTHALMOLOGY” (Dompe' farmaceutici SPA, priority 2022, published 2026):

Assays:
[1] = tested on: Dorsal Root Ganglia (DRG) neurons; experiment: Levels of autophagy pathway proteins (Western blot) in F11 cells differentiated into DRGs; type: cell-based; conditions: 24 h
Description: The effect of NGF on autophagy in the presence and absence of sesamin was assessed on Dorsal Root Ganglia (DRG) neurons, involved in the development of NGF sensory side effects, by analysing the impact of the different treatments on the levels of the above proteins involved in autophagy pathway. F11 cells were cultured in Dulbecco's modified Eagle's medium (DMEM, Cat #D6546; Sigma-Aldrich, St. Louis, MO, USA), with 10% fetal bovine serum, 2 mM glutamine (Sigma-Aldrich, USA). Cells were incubated at 37° C. in a humidified atmosphere with 5% CO2. Cells were then seeded at 7000 cells/cm^2 and were maintained in a low serum medium for almost 2 weeks to induce differentiation into DRGs. The complete composition of the low serum medium was: DMEM supplemented 2 mM glutamine, 1% FBS (Sigma-Aldrich, St. Louis, MO, USA). The medium was replaced every 2 days. Immunofluorescence was used to confirm cell differentiation (data not shown). F11 cells maintained in 10% FBS medium were used as control (control, undifferentiated). Morphological and functional analyses were performed after two weeks of treatment with low serum, at complete differentiation of the cells. The undifferentiated control cells underwent the same analysis at 7 days to avoid dramatic cell death due to confluence. The fully differentiated cells were treated with 1 μM rhNGF alone or in combination with 30 nM Sesamin, for 24 h. Control and treated cells were collected and lysed in ice-cold RIPA buffer (Thermo Scientific, USA) with freshly added protease and phosphatase inhibitors. Protein lysates (30 μg) were separated on 4%-12% precast gel using MOPS or MES buffers (Thermo Scientific, USA) depending on the size of the proteins of interest. Then proteins were electroblotted on polyvinyldifluoride membrane (PVDF; Sigma, St Loius, USA) and nonspecific binding sites were blocked in Blocking buffer (Thermo Scientific) for 15 minutes at RT. Afterward, membranes were incubated overnight at 4° C. with the following primary antibodies, diluted in Blocking buffer: rabbit anti-Atg5 1:1000 (Abcam, ab228668, UK), rabbit anti-LC3 1:2000 (Abcam, ab192890, UK), rabbit anti-Beclin 1:2000 (Abcam, ab207612, UK), rabbit anti-P62 1:500 (Abcam, ab91526, UK), rabbit anti-vinculin 1:1000 (Abcam, ab219649, UK) and HRP-conjugated Actin 1:1000 (Cell Signaling, #5125, USA). As secondary antibodies, peroxidase-conjugated anti-rabbit IgG 1:10000 (Abcam, UK) were used. Immunoreactive bands were visualized by ECL (Thermo Scientific, USA), according to the manufacturer's instructions. The relative optical densities of the immunoreactive bands were determined and normalized with respect to those of the anti-Vinculin or anti-Actin (depending on the molecular weight of the analyzed protein and the gel/buffer used), using ImageJ software. The phosphorylated forms were normalized upon the total form.

male Sprague-Dawley rats = experiment: Eye wiping test (ocular discomfort after ocular administration); type: in vivo; conditions: 3.5 μg/ml sesamin with 20 μg/ml rhNGF in Vehicle 2
Description: An eye wiping test was carried out to evaluate ocular discomfort induced by ocular administration of rhNGF alone or in combination with Sesamin.
The experiments were performed on male Sprague-Dawley rats (300-320 g), Charles River, Italy) housed in the animal care facility of the Department of Pharmacy, University of Naples. Food and water were available ad libitum.
Rats were divided in 4 experimental groups:
Animals were treated with 20 μg/ml of rhNGF in Vehicle 1 (n=8);
Animals were treated with 20 μg/ml of rhNGF and 3.5 μg/ml sesamin in Vehicle 2 (n=8) All compositions tested were prepared immediately before use from lyophilized placebo or rhNGF reconstituted in a volume of 1 mL of the vehicle.
The treatments described above were administered as eye drops 1 time per day, in a volume of 10 μL. Following the application, the eye wiping test was performed.
Animals were placed on a 50×50 cm table for 10 min habituation period. 10 μL of solutions were applied into the left eye of animals and the number of eye wipes was counted for 30 min.
All data are presented as the mean±SEM. Analysis of data were conducted using GraphPad Prism 8. Statistical analysis was performed by two-way ANOVA followed by Tukey's test for multiple comparisons, as appropriate. Statistical significance was set at *p<0.05.

[2] = In-use stability of rhNGF lyophilized formulation (Formulation 6) after reconstitution: oxidized NGF impurity; type: physicochemical
Description: An in-use stability study of said rhNGF lyophilized formulation (according to Formulation 6) after reconstitution with sesamin-containing reconstitution solvent B or with WFI was carried out as follows.
The tests were performed on said lyophilized formulation reconstituted in solvent B or in WFI, stored at different temperatures (+2/+8° C. or 25° C.-60% Relative Humidity), over 28 days, to verify the possible impurity formation in rhNGF reconstituted liquid formulations, in glass vials.
The impurity was determined as the percentage (w/w) of oxidized NGF in respect of the total NGF comprised in the reconstituted liquid formulation.

[3] = topical administration, 200 μg/mL NGF; cited from earlier work
patients = conditions: cited from earlier work
[4] = differentiated F11 cells, 1 μM rhNGF alone, vs control (FIG. 1)

c1cc2c(cc1[C@H]1OC[C@H]3[C@@H]1CO[C@@H]3c1ccc3c(c1)OCO3)OCO2 [sesamin, 5,5′-[(1S,3aR,4S,6aR)-Tetrahydro-1H,3H-furo[3,4-c]furan-1,4-diyl]bis(2H-1,3-benzodioxole)]
autophagy ([1]; 30 nM Sesamin combined with 1 μM rhNGF, vs NGF alone): significantly reduced
eye discomfort induced by rhNGF (male Sprague-Dawley rats): can relieve the eye discomfort

rhNGF: recombinant human nerve growth factor, amino acid sequence SEQ ID NO. 1 and/or SEQ ID NO. 2
level of P62 (autophagy-specific substrate) [1, 4]: decreased
levels of Atg5 [1, 4]: significantly increased
levels of Beclin [1, 4]: significantly increased
levels of LC3-I [1, 4]: increased levels
levels of LC3-II [1, 4]: increased levels
NGF oxidation product % ([2]; reconstituted with WFI, +2/+8° C., day 0): 4.00%
NGF oxidation product % ([2]; reconstituted with WFI, +2/+8° C., day 28): 4.86%
NGF oxidation product % ([2]; reconstituted with WFI, +25° C./60% Relative Humidity, day 0): 4.00%
NGF oxidation product % ([2]; reconstituted with WFI, +25° C./60% Relative Humidity, day 28): 6.48%
NGF oxidation product % ([2]; reconstituted with reconstitution solvent B (sesamin 1.5 μg/mL), +2/+8° C., day 0): 3.11%
NGF oxidation product % ([2]; reconstituted with reconstitution solvent B (sesamin 1.5 μg/mL), +2/+8° C., day 28): 4.21%
NGF oxidation product % ([2]; reconstituted with reconstitution solvent B (sesamin 1.5 μg/mL), +25° C./60% Relative Humidity, day 0): 3.11%
NGF oxidation product % ([2]; reconstituted with reconstitution solvent B (sesamin 1.5 μg/mL), +25° C./60% Relative Humidity, day 28): 5.06%
levels of the protein in all ocular tissues, included the retina and optic nerve [3]: high levels
time of peak increase in ocular tissues after administration [3]: 6 h
primary side effect reported by patients after topical ocular administration (patients; clinical trials or approved indications, mild and transient): eye discomfort
safety of topical administration on the ocular surface (patients; clinical trials): safe
